In paper PMC9388138:

B1: Recombinant human IL13Rα2-Fc chimera (Fc fusion)
chain: DTEIKVNPPQDFEIVDPGYLGYLYLQWQPPLSLDHFKECTVEYELKYRNIGSETWKTIITKNLHYKDGFDLNKGIEAKIHTLLPWQCTNGSEVQSSWAETTYWISPQGIPETKVQDMDCVYYNWQYLLCSWKPGIGVLLDTNYNLFYWYEGLDHALQCVDYIKADGQNIGCRFPYLEASDYKDFYICVNGSSENKPIRSSYFTFQLQNIVKPLPPVYLTFTRESSCEIKLKWSIPLGPIPARCFDYEIEIREDDTTLVTATVENETYTLKTTNETRQLCFVVRSKVNIYCSDDGIWSEWSDKQCWEGEDLSKKTLLR
modifications: biotin (in the titration of CAR T cells)
B2: Recombinant human IL13Rα1-Fc chimera (Fc fusion)
chain: GGGGAAPTETQPPVTNLSVSVENLCTVIWTWNPPEGASSNCSLWYFSHFGDKQDKKIAPETRRSIEVPLNERICLQVGSQCSTNESEKPSILVEKCISPPEGDPESAVTELQCIWHNLSYMKCSWLPGRNTSPDTNYTLYYWHRSLEKIHQCENIFREGQYFGCSFDLTKVKDSSFEQHSVQIMVKDNAGKIKPSFNIVPLTSRVKPDPPHIKNLSFHNDDLYVQWENPQNFISRCLFYEVEVNNSQTETHNVFYVQEAKCENPEFERNVENTSCFMVPGVLPDTLNTVRIRVKTNKLCYEDDKLWSNWSQEMSIGKKRNST
modifications: biotin (in the titration of CAR T cells)

Legend:
Experiment in all cases: flow cytometry on cells; T cells stably expressing the IL13-based CARs titrated with recombinant biotinylated receptor (IL13Rα1-Fc, IL13Rα2-Fc or mouse IL13Rα1); dose-response curves, three independent trials
[1] = target: IL13 C4 CAR (IL13 C4 - IgG4(EQ)-Fc linker - CD28 transmembrane and costimulatory domain - CD3ζ) on T cells
[2] = target: IL13 D7 CAR (IL13 D7 - IgG4(EQ)-Fc linker - CD28 transmembrane and costimulatory domain - CD3ζ) on T cells
[3] = target: IL13 E12Y CAR (IL13 E12Y - IgG4(EQ)-Fc linker - CD28 transmembrane and costimulatory domain - CD3ζ) on T cells
[4] = target: IL13 WT CAR (IL13 - IgG4(EQ)-Fc linker - CD28 transmembrane and costimulatory domain - CD3ζ) on T cells

Row | Binder | Kd [1] [nM] | Kd [2] [nM] | Kd [3] [nM] | Kd [4] [nM]
1 | B1 | 29 | 4.2 | 1.8 | 1.7
2 | B2 | – | – | 34 | 34
